Assay results as given in the DeepSol protein solubility set.

test: soluble on expression in E. coli; label from the status in PepcDB or PDB records

Sequence	soluble on expression in E. coli
MGSDKIHHHHHHMNDPAHPPIPPVSKRDAPAFSDLQHRATSASAFTQGSTTYHDVRPGYPAEAVELARGFGRVLDVGAGTGKLTSELTADQVLALDPSMDMLRVFRSALPAVPCWQATAEHTGIRDNAVDLITCAQTWHWVDVTAASAEFDRVIAPEGAVLLVWNNLDTSIAWVHRLSRIMHAGDVLKPGFTPETAAPWIIDREIRTTWNQHLTPEEIIQLAHTRSYWLNASEKIKERVDQNLQWYLYEHLGFSPDNPVELPYRCDAFLLSRSGTLAGRSSNL	not soluble
RRFEPLLLLPIGFGGLLSNIPEAGLAMTALDHLLHYAHTEQLTIIAEKVNSSSLDVHTIKQAIAFAPPSVQNELEVIASDLGYNAG	not soluble
GPGSMTAAVDLEGVALHGHMKGVTMLKFNRDGDLLFSSAKDTNCSACCWQVKTGKLFGSYTTVGQVEGRTYDAAMVALDVNRESTLLATASAGEEVLLWSVESGALLGSVSRSLSSGASVGFSHDDTLMMVATKGRSSTNSAIQVYNVPFTVPKAGEDIAPVKTPFTTFSTFETPDTITWAAWGPTNETIYYSEGGYMNILDVEANKVIRSRQIHEDENEVINRFSWDPNYLALATASTDKTSHLIDFRDLATIQVYRSDVPVNDVSISPNADHVILGGGMDAASVTTQGGQSIFEVKFFHKVHGHQLGQLRCHFGTINAMSFHPDGRGFASASYDGLIKMYRFGDSYDSTPGAQPLWTL	not soluble
MVINSINWLFSEVVAMAVGEKITISVIKADVGGWPGHSRVHPALIEKAREVLSEAQKNGTIIDFYVTYAGDDLQLIMTHKKGVDSPEVHGLAWEAFKKATEVAKELGLYGAGQDLLKDAFSGNVRGLGPSVAEMEITLRKSEPIVTFHLDKTEPGAFNLPIFRMFADPFNTAGLVIDPKMHMGFRFEIWDILEHKKVIMSSPEEMYDILALIGAKSRYVIKRVYPKEGHPVPKDEPVAVVSTEKLYEVAGEYVGKDDPVAIVRAQSGLPALGEVLEPFAFPHLVSGWMRGSHNGPLMPVPLKYATPTRFDGPPRAVALGWQISPEGKLIGPVDLFDDPAFDWARQKALEITDYIRRHGPFEPHRLPSEEMEYTTLPGVLEKLKDRFEPIE	soluble
MCMHNSGFNLNLPPWVIASRHFNDNPHPLEVQGVRLANRFLFERLDAIASPDERGTVFNDYMSVKFQLHLWQEQATPSARKSLKNSYLRYLRGWMMDSNSVEGAVLKGWVESRMGIVPSFHKARITGIHTESYYGYVVDRTAGSKRTSAINSQLDILYEFCQYELARRFPGELWVTLYRGTFAADDYDVVEELGRREKIIRFNNLVSFTSHEERAWEFGSTVWEIRAPLSKVFFFDDLLPGSILKGEGEYLVIGGEYRVRRVMCTVLEHHHHHH	not soluble
MGDTKVETISRLAQWRIENFGPCSFKKSDPFKVGIWNWHLSIERNRYLSVRLFPELSRVSKEQPPVAKFVLRVSNVGPNRRFYISPVYEKLLRTTDDCVWHVDSSFHGRFTIDVEFLDLKICPVNGGEASPVWPTDATMQSISTQTTLKCLSRMLEESILTDVIIHTADGTLSAHKAILSASSTVFKSMFHHDLMEKESSTIHIDDMSRESCMALLSYLYGNITQEEFWKHRLALLGAANKYDITDLKAACEESLMEDINSSNVLERLQEAWLYQLEKLKKGCLMYLFDFGKIYDVREEISSFFRQADRELMLEMFQEVLSVWKPV	soluble
DNIITGRMKPLHWREMKEVDPNRVTLIDARPRQAYEVEHIPGAISMPVEEIRARIGEIPHDKPIYVYCAVGMRGYFASNILRQCGFSNVRNLIGGYRLYSTITADYSSAGQPATAQLPAKDSPSSHTQVPE	not soluble
MKRVVVTGIGMINALGLDKESSFKAICNGESGVNKITLFDATDFPVQIAAEVKNFDPLEVVDGKEVKKIDRFIQLGIKAAREAMQDAGFSEELDKEEFGIVSASGIGGLPNIEKNSIICSERGPRKISPFFIPSALVNMLGGLISIEHGLKGPNISCVTACAAGTHAIGEAYKSIALGNAKKMLVIGAEAAICPVGIGGFASMKALSTRNEDPQHASRPFDKERDGFVMGEGAGALVFEEYEEAKKRGATIYAELIGFGESADAHHITSPTLDGPLRAMKKALNMAGNPKVDYINAHGTSTPVNDKNETAAIKELFGNNIPLISSTKGQTGHCLGAAGAIEAVVSVMVLRDGVVPPTINQLVKDDECDLDYIPNISRKVDLKVVMSNSFGFGGTNGCVVFKKVD	soluble
MTTHLSNVAPDLQNYLNAIGEPEHPVLTRLREKTGHHRMGKMAIAREQAAVLVWLAKLIRAEKYLEIGVFTGYSSTALALALPEHGRITACDINVTFTDTARQVWNEAGVAHKISLHLQPALLTLDDLIAQGEAGSYDLALIDADKPPTPQYFERCLKLVRQGGIIAIDNILLNGRVMREAASDAPPSVGILKDFNQNLPNDPRIVPITLPVGDGLTLLLKK	not soluble
SLKQPVFKKVLQVGIVVHDLEKAVRTYADDFGIGPWQFYNLDKSNMHDMKMRGEKAEFSMKVAFTDLGGVQLELIEPLDESIYSDFLREHGEGIHHIACGVRNFEETMASMQKKDIKVLLEGTTSAGMGYVYLDTTDALSCITEIYRIPENLQYIPPDKTYEG	soluble
MNMNKTYIPKLDDLLGGGVKEGASIMFSASPGVDYEAFGYQMLNGRLDEGTRGFIFTNVEEPESIIYEFRSYGWDIESHIENGNLFFVDGSSPFLGMPSDQRYTVNDYSEIKDVVLNAINDIPGGVGIINNLSVIIDYLGNGDTLEIVEAWNRRASELDVNLVYLFTEWDYEPELIDKLRESMDCVVNLRTIEERVIIGQGFMVANSAWSEPPSTMVLFFVVQPGGVKVYVPKILVTGPYNSGKSSFVRAIATKSVSVDRKALSAFPTTIAMDIGHLEYKGFMADIFGTPGQERFDMILDVLSREAVGAFILLDSTAPETFARAKEMIRKTRAEAIPKVVVANKQDLPGALSPEEIREMMKLGADVPIVPASVTEGWGVRDALDTLLGLLYGGLEHHHHHH	not soluble
GSDQVQKVDQYLYHMRLSDETLLEISKRFRKEMEKGLGATTHPTAAVKMLPTFVRSTPDGTEHGEFLALDLGGTNFRVLWVKVTDNGLQKVEMENQIYAIPEDIMRGSGTQLFDHIAECLANFMDKLQIKDKKLPLGFTFSFPCHQTKLDESFLVSWTKGFKSSGVEGRDVVALIRKAIQRRGDFDIDIVAVVNDTVGTMMTCGYDDHNCEIGLIVGTGSNACYMEEMRHIDMVEGDEGRMCINMEWGAFGDDGSLNDIRTEFDQEIDMGSLNPGKQLFEKMISGMYMGELVRLILVKMAKEELLFGGKLSPELLNTGRFETKDISDIEGEKDGIRKAREVLMRLGLDPTQEDCVATHRICQIVSTRSASLCAATLAAVLQRIKENKGEERLRSTIGVDGSVYKKHPHFAKRLHKTVRRLVPGCDVRFLRSEDGSGKGAAMVTAVAYRLADQHRARQKTLEHLQLSHDQLLEVKRRMKVEMERGLSKETHASAPVKMLPTYVCATPDGTEKGDFLALDLGGTNFRVLLVRVRNGKWGGVEMHNKIYAIPQEVMHGTGDELFDHIVQCIADFLEYMGMKGVSLPLGFTFSFPCQQNSLDESILLKWTKGFKASGCEGEDVVTLLKEAIHRREEFDLDVVAVVNDTVGTMMTCGFEDPHCEVGLIVGTGSNACYMEEMRNVELVEGEEGRMCVNMEWGAFGDNGCLDDFRTEFDVAVDELSLNPGKQRFEKMISGMYLGEIVRNILIDFTKRGLLFRGRISERLKTRGIFETKFLSQIESDCLALLQVRAILQHLGLESTCDDSIIVKEVCTVVARRAAQLCGAGMAAVVDRIRENRGLDALKVTVGVDGTLYKLHPHFAKVMHETVKDLAPKCDVSFLQSEDGSGKGAALITAVACRIREAGQ	soluble
MQSWYLLYCKRGQLQRAQEHLERQAVNCLAPMITLEKIVRGKRTAVSEPLFPNYLFVEFDPEVIHTTTISATRGVSHFVRFGASPAIVPSAVIHQLSVYKPKDIVDPAPPYPGDKVIITEGAFEGFQAIFTEPDGEARSMLLLNLINKEIKHSVKNTEFRKL	not soluble
MSLRIGVIGLGRIGTIHAENLKMIDDAILYAISDVREDRLREMKEKLGVEKAYKDPHELIEDPNVDAVLVCSSTNTHSELVIACAKAKKHVFCEKPLSLNLADVDRMIEETKKADVILFTGFNRRFDRNFKKLKEAVENGTIGKPHVLRITSRDPAPPPLDYIRVSGGIFLDMTIHDFDMARYIMGEEVEEVFADGSVLVDEEIGKAGDVDTAVVVLRFKSGALGVIDNSRRAVYGYDQRIEVFGSKGRIFADNVRETTVVLTDEQGDRGSRYLYFFLERYRDSYLEELKTFIKNVKSGEPPAVSGEDGKMALLLGYAAKKSLEEKRSVKLEEVIGEGHHHHHH	soluble
MSSPYILVLYYSRHGATAEMARQIARGVEQGGFEARVRTVPAVSTECEAVAPDIPAEGALYATLEDLKNCAGLALGSPTRFGNMASPLKYFLDGTSSLWLTGSLVGKPAAVFTSTASLHGGQETTQLSMLLPLLHHGMLVLGIPYSEPALLETRGGGTPYGASHFAGADGKRSLDEHELTLCRALGKRLAETAGKLGS	soluble
MGSDKIHHHHHHMSPRLGDSAEMFVPQEQSGLNEAAPAAPRRPYRLSRRPEERVHVLGGTMDLVRPEEVFHFVTGKLEARQNAIVANHNLHSLYLIGKDHQIGQFYKAADLIEVDSVPLIFWARLVGRASRRFHRCTYLDWRDAFWALASEKNWKVFFVGGAPGVGEKAVERIRQDWPNARIETHHGYFDATQGSAENTAVVAKIRDYAPDIVLVGMGMPRQEIWTLENHQAYGPAATFTVGGAFDYEAGVQKAAPRWMGPLGMEWLFRLMSDPQRLFFRYCIEPWSLIGPACGDVVRALSRRSTTGESRAAENARWEQIRARNEAAR	not soluble
MPNRKVVKFFFDVISPYSYFGFEGITRHRSVWKTPIQMKPFFFAGVVRHTENPGLPLRIPIKEKYMHKDLLFSAQYWGIPFRLPKDYTNMMLNTSSIVPQRILVASQLRDNVLMEDVARGLWHRFYAYGKPIFTKSQVAEVLRDLHVKDVDELVMMSDSAEVKNILRENTDEAIGNGCFGAPWMHITDGHGKVLQTVFGSDRLPQVADFLAEPFKGPMREKKPNA	not soluble
MKIPSVFMLEQQKASLQLHVKQLANEAIQKSAPSAWFEVLYAEAQGDTTQIPWAKLTPHPYLQEWLTNHQPFPSGQKALVIGCGLGDDAEALAKLGFAVTAFDISPTAIAWCGQRFPNSNVNYIVADLLAIPPQWHLAFDFVFECRNIQALPLNIRAEVITSIASVVAPDGTLLLINRVRLEHHHHHH	not soluble
MSFWRVFLFGLFLTPPAAACDLALALAVDVSGSVDEGEYRTQMDGLAHALRDPVVSEALVRAEAQLMLVQWTGSDRQRVTIPWTQASSFDALDRFADRVAADPRIWRNYSTAIGEALEVTMAAFAQVPDCARHLIDVSGDGPSNEGIEPLAVHRDLRALGITVNAIAIEQSEPDLTAYFYENVIVGEGAFVETANGFADYPARIRKKLLREVTQQTAALDLEHHHHHH	not soluble
MSLNPAYFVLLVEELKTKYLVKDICQILQVPLSTYYRWKKKDFSQSSLEKKIGQLCKAYQFTYGYRKIAALMKQEEQVGINKVQRIMQKYQWQCQVKVKKKNRPGSAYYQTENHLNRNFQASQPLEKLTTDITYLYFGDCRLYLSSIMDLYNGEIVAYSIGEKQDTELVLDTLNQLSLPEGSLLHSDQGSVYTSYEYYQCCKKKNVIRSMSRKGTPADNAPIECFHSSLKCETFYHKTAYKYAKSIVIQIVKDYIKYYNEKRIQQKLGYQSPINFRKQAEGHHHHHH	not soluble
